Measured values as given in patent publication US20170292963A1 (Johns Hopkins, published 2017).

Target: T1, Human NPTX2 (native protein in human CSF; antigen of the anti-human NPTX2 antibody) (human, UniProt P47972 17-431)
T1 construct: In CSF the protein is disulfide-linked with NPTX1 in heterocomplexes; also called Narp
T1 sequence: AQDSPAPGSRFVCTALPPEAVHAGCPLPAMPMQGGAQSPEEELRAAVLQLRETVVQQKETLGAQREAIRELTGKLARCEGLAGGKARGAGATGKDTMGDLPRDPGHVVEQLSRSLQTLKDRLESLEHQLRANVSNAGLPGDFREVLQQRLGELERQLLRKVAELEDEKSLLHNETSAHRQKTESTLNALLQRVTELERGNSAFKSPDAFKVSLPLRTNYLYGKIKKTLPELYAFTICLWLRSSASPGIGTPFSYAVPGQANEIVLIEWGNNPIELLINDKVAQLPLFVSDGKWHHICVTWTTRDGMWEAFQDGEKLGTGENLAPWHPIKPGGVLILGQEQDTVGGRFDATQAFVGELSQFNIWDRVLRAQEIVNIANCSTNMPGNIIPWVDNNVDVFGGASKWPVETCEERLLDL
Experiment: co-immunoprecipitation from human CSF

B1: Human NPTX1 (native protein in human CSF; antigen of the anti-human NPTX1 antibody) (other)
chain: QDFGPTRFICTSVPVDADMCAASVAAGGAEELRSSVLQLRETVLQQKETILSQKETIRELTAKLGRCESQSTLDPGAGEARAGGGRKQPGSGKNTMGDLSRTPAAETLSQLGQTLQSLKTRLENLEQYSRLNSSSQTNSLKDLLQSKIDELERQVLSRVNTLEEGKGGPRNDTEERVKIETALTSLHQRISELEKGQKDNRPGDKFQLTFPLRTNYMYAKVKKSLPEMYAFTVCMWLKSSATPGVGTPFSYAVPGQANELVLIEWGNNPMEILINDKVAKLPFVINDGKWHHICVTWTTRDGVWEAYQDGTQGGSGENLAPYHPIKPQGVLVLGQEQDTLGGGFDATQAFVGELAHFNIWDRKLTPGEVYNLATCSTKALSGNVIAWAESHIEIYGGATKWTFEACRQIN
  binding result: binds
